Numbered stars: 1 amine (or outer) side, 2 acyl side, 3 side chain; on linkers, the order of the positions; unused ones are H or OH. Square brackets hold non-standard residues; d marks the D form. Ends that are not written are not given here. * marks the point of attachment. Pmy = (S)-para-methoxy-phenylalanine, COc1ccc(C[C@H](N[*:1])C(=O)[*:2])cc1; Pro(trans-4-NH2) = O=C([C@@H]1C[C@@H](N[*:3])CN1[*:1])[*:2]; Sni = (S)-nipecotic acid, O=C([C@H]1CCCN([*:1])C1)[*:2]; Phe(4-NO2) = N[C@@H](Cc1ccc([N+](=O)[O-])cc1)C(=O)O; Pro(trans-4-Ph) = O=C(O)[C@@H]1C[C@@H](c2ccccc2)CN1; NH((S)-tetralin-1-yl) = c1ccc2c(c1)CCC[C@@H]2N*; Phe(3,4-Cl2) = N[C@@H](Cc1ccc(Cl)c(Cl)c1)C(=O)O; Bmf = rac-2-amino-3-phenyl-butyric acid; Phe(4-F) = N[C@@H](Cc1ccc(F)cc1)C(=O)O; Pro(3S-OH) = O=C(O)[C@H]1NCC[C@@H]1O; cisHyp = O=C(O)[C@@H]1C[C@H](O)CN1; Hyp = O=C(O)[C@@H]1C[C@@H](O)CN1; NMeL = CN[C@@H](CC(C)C)C(=O)O; β3hK = NCCCC[C@H](N)CC(=O)O; ΔPro = O=C(O)[C@@H]1C=CCN1; Octanoyl = CCCCCCCC(=O)*; Ac5c = NC1(C(=O)O)CCCC1; Dap = NC[C@H](N)C(=O)O; Hexanoyl = CCCCCC(=O)*; Paf = not defined here; leu = not defined here; NHcHex = C1CCC(N*)CC1; Occ = octanoic acid
T1: natriuretic peptide receptor-B (human)
T1 chain: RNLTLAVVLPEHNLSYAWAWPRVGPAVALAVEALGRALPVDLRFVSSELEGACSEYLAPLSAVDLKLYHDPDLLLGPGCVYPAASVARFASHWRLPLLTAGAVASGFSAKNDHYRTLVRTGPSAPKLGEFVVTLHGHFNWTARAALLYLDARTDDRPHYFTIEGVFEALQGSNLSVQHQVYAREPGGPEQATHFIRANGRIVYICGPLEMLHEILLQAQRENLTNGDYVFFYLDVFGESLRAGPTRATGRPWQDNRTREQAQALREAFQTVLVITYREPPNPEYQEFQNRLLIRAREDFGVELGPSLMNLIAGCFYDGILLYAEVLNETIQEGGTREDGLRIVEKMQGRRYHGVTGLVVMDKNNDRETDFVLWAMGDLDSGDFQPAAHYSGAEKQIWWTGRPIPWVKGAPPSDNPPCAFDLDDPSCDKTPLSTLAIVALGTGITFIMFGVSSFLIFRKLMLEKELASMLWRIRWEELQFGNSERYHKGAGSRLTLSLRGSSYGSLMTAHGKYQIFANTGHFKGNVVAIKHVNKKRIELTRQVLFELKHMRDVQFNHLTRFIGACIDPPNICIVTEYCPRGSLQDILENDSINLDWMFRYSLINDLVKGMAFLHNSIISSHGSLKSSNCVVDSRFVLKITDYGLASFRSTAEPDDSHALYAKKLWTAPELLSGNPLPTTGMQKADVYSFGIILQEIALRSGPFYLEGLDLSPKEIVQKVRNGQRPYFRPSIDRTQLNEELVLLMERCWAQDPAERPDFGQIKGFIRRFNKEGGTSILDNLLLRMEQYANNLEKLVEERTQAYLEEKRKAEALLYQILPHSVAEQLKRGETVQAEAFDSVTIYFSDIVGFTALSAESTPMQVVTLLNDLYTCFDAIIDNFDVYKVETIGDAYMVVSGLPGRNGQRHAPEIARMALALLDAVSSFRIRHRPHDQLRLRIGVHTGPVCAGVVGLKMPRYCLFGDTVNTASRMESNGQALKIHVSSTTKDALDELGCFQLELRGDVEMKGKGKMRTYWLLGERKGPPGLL

B1: JAL-1463 (peptide)
peptide: Octanoyl-[dA]FXL[Pro(trans-4-NH2)][NMeL]DRI-NH2
modifications: not fully specified (some residues); printed as Occ-ala-Phe-dap(1464)-Leu-Tap-Nml-Asp-Arg-Ile-NH2
B2: JAL-1475 (peptide)
peptide: Octanoyl-[Sni]F[leu]L[Hyp][NMeL]DPI-NHMe
modifications: reading uncertain; also: printed as Occ-Sni-Phe-leu-Leu-Hyp-Nml-Asp-Pro-Ile-(NH-CH3)
B3: JAL-1476 (peptide)
peptide: Octanoyl-AF[leu]L[Hyp][NMeL]D[cisHyp]I-NH2
modifications: not fully specified (some residues); printed as Occ-ala-Phe-leu-Leu-Hyp-Nml-Asp-Chy-Ile-NH2; reading uncertain
B4: JAL-1477 (peptide)
peptide: Octanoyl-AF[leu]L[Hyp][NMeL]D[Pro(3S-OH)]I-NH2
modifications: not fully specified (some residues); printed as Occ-ala-Phe-leu-Leu-Hyp-Nml-Asp-H3p-Ile-NH2; reading uncertain
B5: JAL-1479 (peptide)
peptide: Octanoyl-AF[leu]L[Hyp][NMeL]D[ΔPro]I-NH2
modifications: not fully specified (some residues); printed as Occ-ala-Phe-leu-Leu-Hyp-Nml-Asp-Dhp-Ile-NH2; reading uncertain
B6: JAL-1482 (peptide)
peptide: Octanoyl-AF[leu]L[Hyp][NMeL]D[Dap]I-NH2
modifications: not fully specified (some residues); printed as Occ-ala-Phe-leu-Leu-Hyp-Nml-Asp-Udp-Ile-NH2; reading uncertain
B7: JAL-1483 (peptide)
peptide: Octanoyl-AF[leu]L[Hyp][NMeL]D[β3hK]I-NH2
modifications: not fully specified (some residues); printed as Occ-ala-Phe-leu-Leu-Hyp-Nml-Asp-Bhk-Ile-NH2; reading uncertain
B8: JAL-0657 (peptide)
peptide: XXFGLKLDRI
HELM: PEPTIDE1{[CCCCCC(=O)[*:2]].[O=C([C@H]1CCC[C@@H](N[*:1])C1)[*:2]].F.G.L.K.L.D.R.I.[am]}$$$$V2.0
SMILES: CCCCCC(=O)N[C@@H]1CCC[C@H](C(=O)N[C@@H](Cc2ccccc2)C(=O)NCC(=O)N[C@@H](CC(C)C)C(=O)N[C@@H](CCCCN)C(=O)N[C@@H](CC(C)C)C(=O)N[C@@H](CC(=O)O)C(=O)N[C@@H](CCCNC(=N)N)C(=O)N[C@H](C(N)=O)[C@@H](C)CC)C1
B9: JAL-1493 (peptide)
peptide: Octanoyl-[Sni]X[leu]L[Hyp][NMeL]DRI-NH2
modifications: not fully specified (some residues); printed as Occ-Sni-Pcf-leu-Leu-Hyp-Nml-Asp-Arg-Ile-NH2
B10: JAL-1494 (peptide)
peptide: Octanoyl-[Sni]X[leu]L[Hyp][NMeL]DRI-NH2
modifications: not fully specified (some residues); printed as Occ-Sni-Pmf-leu-Leu-Hyp-Nml-Asp-Arg-Ile-NH2
B11: JAL-1496 (peptide)
peptide: [Occ][Sni][Phe(3,4-Cl2)]LL[Hyp][NMeL]DRI-NH2
modifications: not fully specified (residue 4); printed as Occ-Sni-Eaa-leu-Leu-Hyp-Nml-Asp-Arg-Ile-NH2
B12: JAL-1506 (peptide)
peptide: [Occ][Sni]FLL[Hyp][NMeL]DP[NH((S)-tetralin-1-yl)]
modifications: not fully specified (residue 4); printed as Occ-Sni-Phe-leu-Leu-Hyp-Nml-Asp-Pro-2118

Molecular target: T1, natriuretic peptide receptor-B
Test: cell-based or functional assay

Binder | EC50 group, cGMP in GTM-3 cells [µM]
B1 | ≤ 1
Octanoyl-[Sni]F[dL]L[Hyp][NMeL]DP[NHcHex] [JAL-1464] | ≤ 5
Octanoyl-[Sni]F[leu]L[Hyp][NMeL]DPI-OH (reading uncertain; also: printed as Occ-Sni-Phe-leu-Leu-Hyp-Nml-Asp-Pro-Ile-OH) [JAL-1474] | ≤ 15
B2 | ≤ 5
B3 | ≤ 5
B4 | ≤ 5
B5 | ≤ 5
B6 | ≤ 5
B7 | ≤ 5
Octanoyl-[Sni][Phe(4-NO2)][leu]L[Hyp][NMeL]DRI-NH2 (reading uncertain; also: printed as Occ-Sni-Nif-leu-Leu-Hyp-Nml-Asp-Arg-Ile-NH2) [JAL-1486] | ≤ 5
B8 | ≤ 15
Octanoyl-[Sni][Phe(4-F)][leu]L[Hyp][NMeL]DRI-NH2 (reading uncertain; also: printed as Occ-Sni-Pff-leu-Leu-Hyp-Nml-Asp-Arg-Ile-NH2) [JAL-1487] | ≤ 1
Octanoyl-[Sni][Pmy][leu]L[Hyp][NMeL]DRI-NH2 (reading uncertain; also: printed as Occ-Sni-Pmy-leu-Leu-Hyp-Nml-Asp-Arg-Ile-) [JAL-1488] | ≤ 5
Octanoyl-[Sni]Y[leu]L[Hyp][NMeL]DRI-NH2 (reading uncertain; also: printed as Occ-Sni-Tyr-leu-Leu-Hyp-Nml-Asp-Arg-Ile-NH2) [JAL-1489] | ≤ 15
Octanoyl-[Sni][Bmf][leu]L[Hyp][NMeL]DRI-NH2 (reading uncertain; also: printed as Occ-Sni-Bmf-leu-Leu-Hyp-Nml-Asp-Arg-Ile-) [JAL-1490] | ≤ 15
Octanoyl-[Sni][Pro(trans-4-Ph)][leu]L[Hyp][NMeL]DRI-NH2 (reading uncertain; also: printed as Occ-Sni-Eay-leu-Leu-Hyp-Nml-Asp-Arg-Ile-NH2) [JAL-1491] | ≤ 5
Octanoyl-[Sni][Paf][leu]L[Hyp][NMeL]DRI-NH2 (reading uncertain; also: printed as Occ-Sni-Paf-leu-Leu-Hyp-Nml-Asp-Arg-Ile-NH2) [JAL-1492] | ≤ 5
B9 | ≤ 1
B10 | ≤ 1
B11 | ≤ 1
B12 | ≤ 5
Hexanoyl-[dA][dA]FGLKLDR[Ac5c]-NH2 [JAL-0692] | ≤ 15

Source: patent publication US9187525B2, “Methods of treating ophthalmic diseases using NPR-B agonists” (Shire Orphan Therapies GmbH, dated 2015)
